{"source": "patent US20150376265A1", "about": "(Genentech, published 2015)", "assay_in_all_cases": "cell-based or functional assay", "key": {"[1]": {"target": "T1, Complex I with gH P171S, on virions of HB1 - mutant virus 3 (HCMV, UniProt P12824 24-743; P16832 31-278; P16837 28-171; F5HCP3 26-214; F5HET4 19-129)", "T1 chain 1": "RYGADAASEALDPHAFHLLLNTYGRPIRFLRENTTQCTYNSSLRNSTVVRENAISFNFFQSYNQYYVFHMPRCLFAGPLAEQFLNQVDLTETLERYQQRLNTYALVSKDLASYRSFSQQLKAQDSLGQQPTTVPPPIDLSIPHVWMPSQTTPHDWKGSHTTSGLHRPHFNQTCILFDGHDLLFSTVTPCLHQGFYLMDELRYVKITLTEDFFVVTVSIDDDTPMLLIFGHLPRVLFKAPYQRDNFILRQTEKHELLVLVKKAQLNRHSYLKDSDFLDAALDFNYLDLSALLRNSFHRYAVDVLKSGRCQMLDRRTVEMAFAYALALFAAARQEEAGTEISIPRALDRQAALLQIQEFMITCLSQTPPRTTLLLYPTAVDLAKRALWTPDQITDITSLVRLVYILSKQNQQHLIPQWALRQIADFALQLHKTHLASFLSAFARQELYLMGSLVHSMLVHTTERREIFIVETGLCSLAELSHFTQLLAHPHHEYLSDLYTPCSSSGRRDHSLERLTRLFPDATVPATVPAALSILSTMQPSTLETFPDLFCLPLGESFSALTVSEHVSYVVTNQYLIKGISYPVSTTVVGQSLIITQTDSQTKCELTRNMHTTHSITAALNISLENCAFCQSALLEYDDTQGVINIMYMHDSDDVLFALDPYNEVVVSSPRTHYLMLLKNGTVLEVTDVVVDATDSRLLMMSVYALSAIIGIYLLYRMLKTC", "T1 chain 2": "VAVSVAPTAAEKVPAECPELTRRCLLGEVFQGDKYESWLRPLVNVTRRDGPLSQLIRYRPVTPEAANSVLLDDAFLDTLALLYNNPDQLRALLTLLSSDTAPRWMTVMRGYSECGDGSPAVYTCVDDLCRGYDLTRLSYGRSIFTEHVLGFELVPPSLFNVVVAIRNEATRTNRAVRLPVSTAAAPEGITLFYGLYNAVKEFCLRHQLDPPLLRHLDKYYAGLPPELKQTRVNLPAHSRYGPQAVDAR", "T1 chain 3": "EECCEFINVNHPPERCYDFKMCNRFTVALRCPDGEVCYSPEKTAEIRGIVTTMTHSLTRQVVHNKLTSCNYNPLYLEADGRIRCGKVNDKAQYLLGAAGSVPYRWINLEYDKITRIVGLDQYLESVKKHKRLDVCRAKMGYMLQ", "T1 chain 4": "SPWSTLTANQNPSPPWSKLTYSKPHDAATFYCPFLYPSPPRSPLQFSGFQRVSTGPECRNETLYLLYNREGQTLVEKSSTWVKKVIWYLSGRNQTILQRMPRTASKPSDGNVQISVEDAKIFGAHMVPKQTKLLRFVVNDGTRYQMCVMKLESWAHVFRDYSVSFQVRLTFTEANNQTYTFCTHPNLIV", "T1 chain 5": "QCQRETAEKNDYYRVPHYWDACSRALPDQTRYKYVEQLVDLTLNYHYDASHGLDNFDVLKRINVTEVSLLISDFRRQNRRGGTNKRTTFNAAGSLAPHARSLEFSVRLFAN"}, "[2]": {"target": "T2, Complex I with gH D446N, on virions of HB1 - mutant virus 4 (HCMV, UniProt P12824 24-743; P16832 31-278; P16837 28-171; F5HCP3 26-214; F5HET4 19-129)", "T2 chain 1": "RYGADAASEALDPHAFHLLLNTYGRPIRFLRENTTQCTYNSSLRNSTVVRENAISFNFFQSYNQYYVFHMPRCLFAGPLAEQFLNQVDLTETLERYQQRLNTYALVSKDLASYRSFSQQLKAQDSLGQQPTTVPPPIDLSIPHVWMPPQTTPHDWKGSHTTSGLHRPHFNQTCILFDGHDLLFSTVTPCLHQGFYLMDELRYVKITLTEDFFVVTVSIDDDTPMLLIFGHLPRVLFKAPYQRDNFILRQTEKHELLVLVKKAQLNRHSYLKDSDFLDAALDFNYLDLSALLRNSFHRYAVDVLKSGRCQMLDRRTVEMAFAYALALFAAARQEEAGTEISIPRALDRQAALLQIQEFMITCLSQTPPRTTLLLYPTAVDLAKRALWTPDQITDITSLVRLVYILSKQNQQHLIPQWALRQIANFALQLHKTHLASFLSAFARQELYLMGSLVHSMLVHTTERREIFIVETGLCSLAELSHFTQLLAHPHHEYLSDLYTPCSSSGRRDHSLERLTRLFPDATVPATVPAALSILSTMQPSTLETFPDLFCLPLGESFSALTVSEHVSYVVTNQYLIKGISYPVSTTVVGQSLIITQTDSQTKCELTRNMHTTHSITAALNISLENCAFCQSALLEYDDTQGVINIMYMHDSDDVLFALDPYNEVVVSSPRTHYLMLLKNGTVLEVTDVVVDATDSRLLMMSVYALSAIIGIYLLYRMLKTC", "T2 chain 2": "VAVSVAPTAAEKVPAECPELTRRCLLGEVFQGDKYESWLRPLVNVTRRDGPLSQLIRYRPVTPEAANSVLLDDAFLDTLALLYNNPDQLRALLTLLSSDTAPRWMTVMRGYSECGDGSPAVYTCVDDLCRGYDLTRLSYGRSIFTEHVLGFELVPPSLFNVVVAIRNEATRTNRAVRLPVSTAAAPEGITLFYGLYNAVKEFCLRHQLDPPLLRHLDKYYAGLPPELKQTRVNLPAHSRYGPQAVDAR", "T2 chain 3": "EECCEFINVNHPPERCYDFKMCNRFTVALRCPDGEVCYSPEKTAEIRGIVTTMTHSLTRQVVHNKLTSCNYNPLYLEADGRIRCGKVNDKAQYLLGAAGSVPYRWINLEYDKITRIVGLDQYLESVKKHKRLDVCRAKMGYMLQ", "T2 chain 4": "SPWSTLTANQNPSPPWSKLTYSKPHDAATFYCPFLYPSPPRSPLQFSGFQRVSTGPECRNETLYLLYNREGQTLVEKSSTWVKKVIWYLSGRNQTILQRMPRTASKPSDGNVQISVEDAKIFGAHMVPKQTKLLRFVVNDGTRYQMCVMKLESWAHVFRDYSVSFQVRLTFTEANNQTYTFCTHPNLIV", "T2 chain 5": "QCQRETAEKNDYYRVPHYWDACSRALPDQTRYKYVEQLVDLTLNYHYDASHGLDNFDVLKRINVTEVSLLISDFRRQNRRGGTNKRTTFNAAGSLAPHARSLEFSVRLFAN"}, "[3]": {"target": "T3, Complex I with gH P171H, on virions of HB1 - mutant virus 1 (HCMV, UniProt P12824 24-743; P16832 31-278; P16837 28-171; F5HCP3 26-214; F5HET4 19-129)", "T3 chain 1": "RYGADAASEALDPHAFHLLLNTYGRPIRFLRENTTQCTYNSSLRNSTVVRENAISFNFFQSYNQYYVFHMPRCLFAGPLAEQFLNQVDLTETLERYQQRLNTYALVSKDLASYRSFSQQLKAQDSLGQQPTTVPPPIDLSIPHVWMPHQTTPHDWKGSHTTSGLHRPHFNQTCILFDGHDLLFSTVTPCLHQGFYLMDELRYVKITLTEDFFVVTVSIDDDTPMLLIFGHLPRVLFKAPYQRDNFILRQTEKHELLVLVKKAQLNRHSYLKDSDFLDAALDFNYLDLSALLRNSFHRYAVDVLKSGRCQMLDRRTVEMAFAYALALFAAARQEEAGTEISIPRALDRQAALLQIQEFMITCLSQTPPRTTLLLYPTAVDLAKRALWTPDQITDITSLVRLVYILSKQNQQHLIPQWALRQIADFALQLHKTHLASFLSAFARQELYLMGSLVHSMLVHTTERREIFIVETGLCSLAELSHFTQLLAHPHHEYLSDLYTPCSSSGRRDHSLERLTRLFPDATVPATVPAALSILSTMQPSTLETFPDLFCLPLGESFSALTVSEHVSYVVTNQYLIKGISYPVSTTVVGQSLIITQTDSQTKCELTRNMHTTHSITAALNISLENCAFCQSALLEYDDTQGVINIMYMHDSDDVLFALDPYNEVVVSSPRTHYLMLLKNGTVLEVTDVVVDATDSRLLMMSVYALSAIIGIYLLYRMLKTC", "T3 chain 2": "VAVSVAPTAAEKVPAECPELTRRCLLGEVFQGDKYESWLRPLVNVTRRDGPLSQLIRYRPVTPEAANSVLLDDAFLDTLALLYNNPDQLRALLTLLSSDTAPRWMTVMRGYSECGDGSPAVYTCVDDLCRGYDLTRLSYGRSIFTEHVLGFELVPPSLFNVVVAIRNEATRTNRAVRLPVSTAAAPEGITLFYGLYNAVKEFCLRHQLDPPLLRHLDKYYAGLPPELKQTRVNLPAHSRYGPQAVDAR", "T3 chain 3": "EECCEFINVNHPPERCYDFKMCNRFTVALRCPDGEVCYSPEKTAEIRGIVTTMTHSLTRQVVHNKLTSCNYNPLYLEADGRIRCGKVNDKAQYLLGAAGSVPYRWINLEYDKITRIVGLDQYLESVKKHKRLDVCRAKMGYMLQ", "T3 chain 4": "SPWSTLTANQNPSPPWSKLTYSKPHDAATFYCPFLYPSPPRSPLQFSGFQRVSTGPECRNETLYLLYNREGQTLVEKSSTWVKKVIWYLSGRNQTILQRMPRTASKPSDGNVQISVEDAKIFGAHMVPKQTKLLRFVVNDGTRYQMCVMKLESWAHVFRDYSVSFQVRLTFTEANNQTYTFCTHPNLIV", "T3 chain 5": "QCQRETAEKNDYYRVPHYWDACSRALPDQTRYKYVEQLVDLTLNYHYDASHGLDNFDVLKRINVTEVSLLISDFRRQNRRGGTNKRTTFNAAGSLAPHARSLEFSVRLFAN"}}}
{"binder": "hu8G8 (lambda4 8G8 graft and hu8G8.VH1) (antibody, V domains shown, also called hu8G8 with VH1; Humanized 8G8 with VH1) VH: EVQLVQSGAEVKKPGASVKVSCKASGYTFTNYGMNWVRQAPGQGLEWIGWINTYTGEPTYADDFKGRVTITRDTSTSTAYLELSSLRSEDTAVYYCARSWYYVSNYWYFDVWGQGTLVTVSS VL: SVLTQSPSASASLGASVKLTCTLSSQHSTYTIEWYQQQPGKGPRYLMKLKKDGSHSTGDGIPDRFSGSSSGADRYLTISNLQSEDEADYYCGVGDTIKEQFVYVFGGGTKLTVLG", "values": [{"measurement": "hu8G8 EC50, neutralisation of HB1 - mutant virus 3, Data Set 1", "setting": "[1]", "result": 1, "unit": "ng/mL"}, {"measurement": "hu8G8 EC50, neutralisation of HB1 - mutant virus 3, Data Set 2", "setting": "[1]", "result": 0.1, "unit": "ng/mL"}, {"measurement": "hu8G8 EC50, neutralisation of HB1 - mutant virus 4, Data Set 2", "setting": "[2]", "result": 0.1, "unit": "ng/mL"}, {"measurement": "hu8G8 EC50, neutralisation of HB1 - mutant virus 1, Data Set 1", "setting": "[3]", "result": 10, "unit": "ng/mL"}, {"measurement": "hu8G8 EC50, neutralisation of HB1 - mutant virus 1, Data Set 2", "setting": "[3]", "result": 0.6, "unit": "ng/mL"}]}
